These results are taken from PMC5039685 (Theranostics, 2016).

The target of the assay is GST-Src (UniProt P12931 1-536). Put plainly: pull-down.

B1: (His)6-tagged EB1 (natural protein, UniProt Q15691 1-268, looked up)
chain: MAVNVYSTSVTSDNLSRHDMLAWINESLQLNLTKIEQLCSGAAYCQFMDMLFPGSIALKKVKFQAKLEHEYIQNFKILQAGFKRMGVDKIIPVDKLVKGKFQDNFEFVQWFKKFFDANYDGKDYDPVAARQGQETAVAPSLVAPALNKPKKPLTSSSAAPQRPISTQRTAAAPKAGPGVVRKNPGVGNGDDEAAELMQQVNVLKLTVEDLEKERDFYFGKLRNIELICQENEGENDPVLQRIVDILYATDEGFVIPDEGGPQEEQEEY
For the molecule B1, the binding result is “binds”.
